In the assay the target is PLCγ1 (mouse, endogenous, hippocampus) (mouse) (UniProt Q62077). Description: cell-based or functional assay.

Take “TrkB Y816F (mouse, trkB PLC/PLC knock-in) (from UniProt P15209 32-821) (receptor)”: the decrease in pY783 PLCγ1 immunoreactivity in hippocampal synaptic membranes, trkB^PLC/PLC against trkB^WT/WT after normal saline (Western blot) is 38% and the pY783 PLCγ1 immunoreactivity in hippocampal synaptic membranes after status epilepticus, trkB^WT/WT over trkB^PLC/PLC (Western blot) was determined as 1.84 fold.

Source of the values: patent US20220072094A1.
